From US20100129369A1 (Eli Lilly, published 2010) come the findings set out here.

Test [1] has as its target T1, RON-ECD-Fc (human, UniProt Q04912 25-957).
T1 construct: extracellular domain; Bought reagent; not shown: Fc part of the bought fusion
T1 sequence (looked up): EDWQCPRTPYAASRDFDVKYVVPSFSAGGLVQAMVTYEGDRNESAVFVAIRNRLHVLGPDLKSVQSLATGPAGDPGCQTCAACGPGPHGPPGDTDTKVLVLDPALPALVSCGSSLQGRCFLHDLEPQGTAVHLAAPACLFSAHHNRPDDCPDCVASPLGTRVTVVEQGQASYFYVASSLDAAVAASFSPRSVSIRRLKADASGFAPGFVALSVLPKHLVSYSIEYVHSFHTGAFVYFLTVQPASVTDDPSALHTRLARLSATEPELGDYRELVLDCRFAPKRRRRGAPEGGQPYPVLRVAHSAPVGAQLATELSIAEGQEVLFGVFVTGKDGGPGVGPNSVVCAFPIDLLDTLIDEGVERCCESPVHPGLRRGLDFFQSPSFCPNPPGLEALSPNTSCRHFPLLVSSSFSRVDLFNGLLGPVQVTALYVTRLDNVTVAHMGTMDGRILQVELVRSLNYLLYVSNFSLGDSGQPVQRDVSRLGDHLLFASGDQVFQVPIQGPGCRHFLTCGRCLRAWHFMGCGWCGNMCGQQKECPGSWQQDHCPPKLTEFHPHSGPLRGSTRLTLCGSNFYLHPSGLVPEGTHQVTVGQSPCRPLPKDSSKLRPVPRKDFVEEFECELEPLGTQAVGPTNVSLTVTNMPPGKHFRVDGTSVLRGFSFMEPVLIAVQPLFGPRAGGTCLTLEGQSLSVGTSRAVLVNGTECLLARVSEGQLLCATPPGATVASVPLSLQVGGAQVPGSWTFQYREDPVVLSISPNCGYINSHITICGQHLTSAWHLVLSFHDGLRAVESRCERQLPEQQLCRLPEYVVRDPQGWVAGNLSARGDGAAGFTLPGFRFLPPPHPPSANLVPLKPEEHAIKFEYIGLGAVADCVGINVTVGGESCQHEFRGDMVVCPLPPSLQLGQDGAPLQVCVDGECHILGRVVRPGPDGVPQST
Kind of test: ELISA, coated ECD-Fc, antibody 0.000 ng/mL. As to the method:
(§1) Wells of 96-well EIA/RIA high binding plates (Costar, #2592) are coated with 100 μL of 1 μg/mL human c-Met extracellular domain (ECD)-Fc-Flis fusion (SEQ ID NO:72), RON-ECD-Fc (R&D Systems, #1947-MS), or PlexinA2-ECD-Fc (Abnova, Taipei, Taiwan #H00005362-P01) in coating buffer (BioFX Labs, # COAT-1000-01) overnight at 4° C. […] After the plates are washed, 100 μL/well of substrate solution (BioFx, #TMBW-1000-01) are added and the plates are incubated for 10 min. at room temperature. 100 μL/well of stop solution (BioFx, # LSTP-1000-01) are added to stop the reaction. The colorimetric signals are developed and read at 450 nm using a SpectraMax 190 plate reader (Molecular Devices, Sunnyvale, Calif.). c-Met antibody binding to c-Met, RON and PlexinA2 ECDs is proportional to color signal production.
On the technique in general: ELISA stands for enzyme-linked immunosorbent assay.

Test [2] has as its target T2, PlexinA2-ECD-Fc (human, UniProt O75051 35-1237).
T2 construct: extracellular domain; Bought reagent
T2 sequence (looked up): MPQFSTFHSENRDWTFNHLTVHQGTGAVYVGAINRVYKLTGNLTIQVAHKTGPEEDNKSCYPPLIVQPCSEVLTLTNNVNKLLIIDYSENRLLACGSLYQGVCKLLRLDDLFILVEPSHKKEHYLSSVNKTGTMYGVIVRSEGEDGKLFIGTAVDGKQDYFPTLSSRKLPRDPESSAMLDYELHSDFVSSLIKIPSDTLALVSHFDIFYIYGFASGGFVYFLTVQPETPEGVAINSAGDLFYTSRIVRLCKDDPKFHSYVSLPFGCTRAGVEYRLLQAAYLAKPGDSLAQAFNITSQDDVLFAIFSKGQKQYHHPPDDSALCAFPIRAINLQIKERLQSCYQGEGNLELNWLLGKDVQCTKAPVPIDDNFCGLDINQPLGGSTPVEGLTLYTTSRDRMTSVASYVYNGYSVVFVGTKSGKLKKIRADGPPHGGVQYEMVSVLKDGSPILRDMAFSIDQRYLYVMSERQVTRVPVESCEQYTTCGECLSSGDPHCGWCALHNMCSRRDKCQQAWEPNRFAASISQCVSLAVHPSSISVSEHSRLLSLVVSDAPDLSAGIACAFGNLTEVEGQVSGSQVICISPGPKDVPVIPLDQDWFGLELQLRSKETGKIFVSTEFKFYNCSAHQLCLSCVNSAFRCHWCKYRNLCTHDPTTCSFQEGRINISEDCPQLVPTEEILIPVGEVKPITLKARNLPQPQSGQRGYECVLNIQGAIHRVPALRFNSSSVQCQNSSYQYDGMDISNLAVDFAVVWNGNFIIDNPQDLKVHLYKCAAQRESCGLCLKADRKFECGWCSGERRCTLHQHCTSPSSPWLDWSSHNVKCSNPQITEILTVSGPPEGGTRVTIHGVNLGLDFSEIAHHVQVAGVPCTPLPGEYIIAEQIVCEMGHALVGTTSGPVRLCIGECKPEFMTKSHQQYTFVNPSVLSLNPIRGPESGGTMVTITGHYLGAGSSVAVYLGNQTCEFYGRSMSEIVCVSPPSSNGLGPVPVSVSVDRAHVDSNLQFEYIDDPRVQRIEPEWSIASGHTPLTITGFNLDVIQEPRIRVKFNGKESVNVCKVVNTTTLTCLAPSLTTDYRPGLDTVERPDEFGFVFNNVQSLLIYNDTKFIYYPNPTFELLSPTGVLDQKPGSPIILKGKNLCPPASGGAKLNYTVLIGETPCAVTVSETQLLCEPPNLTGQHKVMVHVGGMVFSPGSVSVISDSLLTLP
Kind of test: ELISA, coated ECD-Fc, antibody 100000.000 ng/mL. As to the method:
as §1

Test [3] addresses T1, RON-ECD-Fc. Kind of test: ELISA, coated ECD-Fc, antibody 100000.000 ng/mL. As to the method: as §1
Test [4] addresses T3, Human c-Met-Flis-Fc ECD (human).
T3 construct: also called human c-Met extracellular domain (ECD)-Fc-Flis fusion; Human cMet-ECD-Fc-Flis
Kind of test: ELISA, coated ECD-Fc, antibody 100000.000 ng/mL. How it is done: as §1

In test [5] the target is T2, PlexinA2-ECD-Fc. Kind of test: ELISA, coated ECD-Fc, antibody 0.357 ng/mL. As to the method: as §1
The target of test [6] is T1, RON-ECD-Fc. Kind of test: ELISA, coated ECD-Fc, antibody 0.357 ng/mL. As to the method:
as §1

Test [7] has as its target T3, Human c-Met-Flis-Fc ECD. Kind of test: ELISA, coated ECD-Fc, antibody 0.357 ng/mL. As to the method: as §1

T3 sequence (chain, as listed by the source limits assumed): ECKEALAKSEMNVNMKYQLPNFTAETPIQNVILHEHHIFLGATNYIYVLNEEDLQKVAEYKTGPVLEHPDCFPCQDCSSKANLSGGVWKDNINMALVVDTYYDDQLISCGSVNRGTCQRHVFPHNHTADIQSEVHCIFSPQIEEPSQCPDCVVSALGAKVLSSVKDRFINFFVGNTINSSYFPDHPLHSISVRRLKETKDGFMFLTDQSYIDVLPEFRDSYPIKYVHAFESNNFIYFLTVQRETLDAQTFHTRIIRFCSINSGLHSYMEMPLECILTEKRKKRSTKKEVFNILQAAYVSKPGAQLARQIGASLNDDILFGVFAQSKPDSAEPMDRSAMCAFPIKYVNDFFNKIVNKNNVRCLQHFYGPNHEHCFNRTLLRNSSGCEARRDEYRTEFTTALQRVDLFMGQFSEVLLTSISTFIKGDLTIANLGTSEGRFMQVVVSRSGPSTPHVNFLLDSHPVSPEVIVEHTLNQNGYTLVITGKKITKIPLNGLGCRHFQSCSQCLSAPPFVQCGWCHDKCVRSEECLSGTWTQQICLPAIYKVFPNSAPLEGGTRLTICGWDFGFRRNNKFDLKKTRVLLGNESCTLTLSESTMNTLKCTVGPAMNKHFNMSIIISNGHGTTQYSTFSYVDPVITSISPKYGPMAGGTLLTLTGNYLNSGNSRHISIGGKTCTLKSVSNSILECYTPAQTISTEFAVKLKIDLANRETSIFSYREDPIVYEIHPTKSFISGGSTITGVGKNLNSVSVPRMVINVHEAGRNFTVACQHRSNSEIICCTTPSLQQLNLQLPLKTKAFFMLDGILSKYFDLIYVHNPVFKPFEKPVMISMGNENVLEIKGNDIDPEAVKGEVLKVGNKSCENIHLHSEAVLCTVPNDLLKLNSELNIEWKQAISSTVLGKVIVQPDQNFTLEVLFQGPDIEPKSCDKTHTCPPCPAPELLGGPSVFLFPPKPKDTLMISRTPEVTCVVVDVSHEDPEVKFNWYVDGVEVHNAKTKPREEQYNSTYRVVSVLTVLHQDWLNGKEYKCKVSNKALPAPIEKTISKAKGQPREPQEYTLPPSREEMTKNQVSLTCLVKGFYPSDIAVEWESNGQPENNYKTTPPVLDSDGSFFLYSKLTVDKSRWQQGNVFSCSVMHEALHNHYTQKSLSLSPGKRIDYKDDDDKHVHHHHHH

B1: C8-6 (antibody, human IgG2, kappa, V domains shown)
VH: QVQLVQSGAEVKKPGASVKVSCKASGYTFTDYYMHWVRQAPGQGLEWMGRVNPNRGGTTYNQKFEGRVTMTTDTSTSTAYMELRSLRSDDTAVYYCARTNWLDYWGQGTTVTVSS
VL: DIQMTQSPSSLSASVGDRVTITCSVSSSVSSIYLHWYQQKPGKAPKLLIYSTSNLASGVPSRFSGSGSGTDFTLTISSLQPEDFATYYCIQYSGYPLTFGGGTKVEIKR
notes: Called IgG4, kappa; also called Mab C8-6
For the molecule B1, the “Average A450 nm” value turned out to be 0.11 A450 nm in the test with RON-ECD-Fc [1]; 0.171 A450 nm in the test with PlexinA2-ECD-Fc [2]; 0.17 A450 nm with RON-ECD-Fc [3]; 4 A450 nm with Human c-Met-Flis-Fc ECD [4]; 0.107 A450 nm in the test with PlexinA2-ECD-Fc [5]; 0.08 A450 nm with RON-ECD-Fc [6]. Also, the “Average A450 nm” value in the test with Human c-Met-Flis-Fc ECD [7] was found to be 0.813 A450 nm.
